The text below walks through data of IntAct's records for PubMed 26481812.

The chains are these.
B1: C-type mannose receptor 2 (Homo sapiens), Q9UBG0 (parent)
chain: MGPGRPAPAPWPRHLLRCVLLLGCLHLGRPGAPGDAALPEPNVFLIFSHGLQGCLEAQGGQVRVTPACNTSLPAQRWKWVSRNRLFNLGTMQCLGTGWPGTNTTASLGMYECDREALNLRWHCRTLGDQLSLLLGARTSNISKPGTLERGDQTRSGQWRIYGSEEDLCALPYHEVYTIQGNSHGKPCTIPFKYDNQWFHGCTSTGREDGHLWCATTQDYGKDERWGFCPIKSNDCETFWDKDQLTDSCYQFNFQSTLSWREAWASCEQQGADLLSITEIHEQTYINGLLTGYSSTLWIGLNDLDTSGGWQWSDNSPLKYLNWESDQPDNPSEENCGVIRTESSGGWQNRDCSIALPYVCKKKPNATAEPTPPDRWANVKVECEPSWQPFQGHCYRLQAEKRSWQESKKACLRGGGDLVSIHSMAELEFITKQIKQEVEELWIGLNDLKLQMNFEWSDGSLVSFTHWHPFEPNNFRDSLEDCVTIWGPEGRWNDSPCNQSLPSICKKAGQLSQGAAEEDHGCRKGWTWHSPSCYWLGEDQVTYSEARRLCTDHGSQLVTITNRFEQAFVSSLIYNWEGEYFWTALQDLNSTGSFFWLSGDEVMYTHWNRDQPGYSRGGCVALATGSAMGLWEVKNCTSFRARYICRQSLGTPVTPELPGPDPTPSLTGSCPQGWASDTKLRYCYKVFSSERLQDKKSWVQAQGACQELGAQLLSLASYEEEHFVANMLNKIFGESEPEIHEQHWFWIGLNRRDPRGGQSWRWSDGVGFSYHNFDRSRHDDDDIRGCAVLDLASLQWVAMQCDTQLDWICKIPRGTDVREPDDSPQGRREWLRFQEAEYKFFEHHSTWAQAQRICTWFQAELTSVHSQAELDFLSHNLQKFSRAQEQHWWIGLHTSESDGRFRWTDGSIINFISWAPGKPRPVGKDKKCVYMTASREDWGDQRCLTALPYICKRSNVTKETQPPDLPTTALGGCPSDWIQFLNKCFQVQGQEPQSRVKWSEAQFSCEQQEAQLVTITNPLEQAFITASLPNVTFDLWIGLHASQRDFQWVEQEPLMYANWAPGEPSGPSPAPSGNKPTSCAVVLHSPSAHFTGRWDDRSCTEETHGFICQKGTDPSLSPSPAALPPAPGTELSYLNGTFRLLQKPLRWHDALLLCESRNASLAYVPDPYTQAFLTQAARGLRTPLWIGLAGEEGSRRYSWVSEEPLNYVGWQDGEPQQPGGCTYVDVDGAWRTTSCDTKLQGAVCGVSSGPPPPRRISYHGSCPQGLADSAWIPFREHCYSFHMELLLGHKEARQRCQRAGGAVLSILDEMENVFVWEHLQSYEGQSRGAWLGMNFNPKGGTLVWQDNTAVNYSNWGPPGLGPSMLSHNSCYWIQSNSGLWRPGACTNITMGVVCKLPRAEQSSFSPSALPENPAALVVVLMAVLLLLALLTAALILYRRRQSIERGAFEGARYSRSSSSPTEATEKNILVSDMEMNEQQE

Variants of B1 are the subject of this experiment. As to conditions: with co1a1_rat Col1a1, P02454.
Chain of co1a1_rat Col1a1, P02454 (P02454 whole entry): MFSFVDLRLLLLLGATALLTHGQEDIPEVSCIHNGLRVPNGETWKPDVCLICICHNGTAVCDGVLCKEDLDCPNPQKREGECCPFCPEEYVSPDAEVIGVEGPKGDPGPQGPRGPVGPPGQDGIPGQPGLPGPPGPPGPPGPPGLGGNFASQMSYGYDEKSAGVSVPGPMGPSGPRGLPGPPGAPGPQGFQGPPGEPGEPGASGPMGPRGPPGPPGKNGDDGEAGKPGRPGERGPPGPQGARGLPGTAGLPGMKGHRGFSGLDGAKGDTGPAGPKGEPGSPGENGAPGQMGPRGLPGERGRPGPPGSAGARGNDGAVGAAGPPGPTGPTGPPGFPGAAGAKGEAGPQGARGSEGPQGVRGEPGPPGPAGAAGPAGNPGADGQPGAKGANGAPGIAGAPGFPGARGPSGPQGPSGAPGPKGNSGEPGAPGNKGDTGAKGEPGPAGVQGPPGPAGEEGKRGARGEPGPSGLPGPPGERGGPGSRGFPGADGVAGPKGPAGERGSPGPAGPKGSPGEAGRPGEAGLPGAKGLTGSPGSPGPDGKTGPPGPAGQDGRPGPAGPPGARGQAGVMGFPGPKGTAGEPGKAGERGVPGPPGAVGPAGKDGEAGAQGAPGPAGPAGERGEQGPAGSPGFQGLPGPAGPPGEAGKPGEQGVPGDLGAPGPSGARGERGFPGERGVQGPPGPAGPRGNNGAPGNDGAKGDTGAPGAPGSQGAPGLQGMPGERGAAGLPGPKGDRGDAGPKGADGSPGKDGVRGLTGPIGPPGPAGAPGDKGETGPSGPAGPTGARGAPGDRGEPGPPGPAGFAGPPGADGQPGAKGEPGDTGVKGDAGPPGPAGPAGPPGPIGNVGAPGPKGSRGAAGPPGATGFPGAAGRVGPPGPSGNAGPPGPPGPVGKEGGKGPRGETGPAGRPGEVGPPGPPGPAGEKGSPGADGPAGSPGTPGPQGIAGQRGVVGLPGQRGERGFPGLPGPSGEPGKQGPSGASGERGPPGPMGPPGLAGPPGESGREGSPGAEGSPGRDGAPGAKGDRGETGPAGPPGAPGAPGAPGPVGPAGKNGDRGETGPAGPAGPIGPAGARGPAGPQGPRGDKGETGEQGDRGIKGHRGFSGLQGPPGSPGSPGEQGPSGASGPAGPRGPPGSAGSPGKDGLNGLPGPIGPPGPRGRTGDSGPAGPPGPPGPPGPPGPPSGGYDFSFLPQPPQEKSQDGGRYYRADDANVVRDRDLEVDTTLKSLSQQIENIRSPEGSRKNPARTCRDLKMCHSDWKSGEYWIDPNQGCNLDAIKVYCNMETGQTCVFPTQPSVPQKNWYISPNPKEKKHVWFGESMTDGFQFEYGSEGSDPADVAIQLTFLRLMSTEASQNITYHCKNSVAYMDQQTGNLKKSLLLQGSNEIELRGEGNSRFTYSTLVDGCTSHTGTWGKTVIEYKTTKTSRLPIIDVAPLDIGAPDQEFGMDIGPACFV
In the case of Q179N;N181T, the “effect of a mutation on the interaction” value is given as “disrupting interaction strength”. For Y219A, the “effect of a mutation on the interaction” value is “disrupting interaction strength”. In the case of R206A;D208A, the “effect of a mutation on the interaction” value was “disrupting interaction strength”. The same measure for Y292N;S294T: “decreasing interaction strength”; for Y193A: “disrupting interaction strength”.
